Assay results from patent US20250002565A1 (published 2025).
No end group written: not given here.

T1: 15-mer peptide LGIWGCSGKLICTTT (SEQ ID NO:1) (HIV, not fully specified; cysteine pairing not given here)
T1 construct: also called U1731DB060-1; U173DB060-1
T1 peptide: LGIWGCSGKLICTTT


Columns and labels:
[1] = biological target: T1, 15-mer peptide LGIWGCSGKLICTTT (SEQ ID …); assay: indirect ELISA; 15-mer peptide coated 1 ug/ml in DTT; antibody at 1000 ng/ml
Method: (§1) In a first study, an ELISA was prepared in which the linear (reduced) form of the 15-mer peptide […] (SEQ ID NO:1) was coated onto a solid support and contacted with various concentrations of peptides #1, #2, #3, #4, #5, #6, #7, #8, #9Q, #10Q, and #11Q. A mouse, anti-human IgG Fc-HRP at 0.2 μg/ml was used as a secondary antibody.

[2] = biological target: T1, 15-mer peptide LGIWGCSGKLICTTT (SEQ ID …); assay: indirect ELISA; 15-mer peptide coated 1 ug/ml in DTT; negative control well of this row (not explained)
Method: as §1

[3] = biological target: T1, 15-mer peptide LGIWGCSGKLICTTT (SEQ ID …); assay: indirect ELISA; 15-mer peptide coated 1 ug/ml in DTT; antibody at 37 ng/ml
Method: as §1

[4] = biological target: T1, 15-mer peptide LGIWGCSGKLICTTT (SEQ ID …); assay: indirect ELISA; 15-mer peptide coated 1 ug/ml in DTT; antibody at 111 ng/ml
Method: as §1

[5] = biological target: T1, 15-mer peptide LGIWGCSGKLICTTT (SEQ ID …); assay: indirect ELISA; 15-mer peptide coated 1 ug/ml in DTT; antibody at 12 ng/ml
Method: as §1

[6] = biological target: T1, 15-mer peptide LGIWGCSGKLICTTT (SEQ ID …); assay: indirect ELISA; 15-mer peptide coated 1 ug/ml in DTT; antibody at 333 ng/ml
Method: as §1

[7] = biological target: T2, gp41 on the membrane of HIV-infected CD4+ cells (HIV); assay: FACS on HIV-infected CD4+ cells, presence of sCD4
T2 construct: whole, on cells; also called CD4 cell-surface gp41
Method: (§2) For the FACS binding studies, the CD4+ cells that were infected with HIV expressed HIV viral envelope proteins on the cell membrane surfaces, e.g., gp160=gp41 and gp 120. Binding of proteins #7, #10Q, and #10V was tested in both presence and absence of soluble CD4 (sCD4).

[8] = biological target: gp41 of HIV isolate SF-162 (clade B clinical isolate) (HIV isolate SF-162, clade B); assay: cell-based or functional assay
[9] = biological target: T3, recombinant HIV gp41 (HIV); assay: indirect ELISA; gp41 coated 2 µg/ml in DTT (by the table's columns; paragraph 121 calls it the value against SEQ ID NO:1)
T3 construct: also called U7267DC080-1; U1916DG190-1
Method: (§3) Variants #9V, #10V, and #11V were prepared with substitutions in the heavy chain. These variants comprised amino acids sequences nearly identical to #9Q, #10Q, and #11Q, respectively, with the only distinction being a substitution of glutamine (Q) for valine (V) at the 5 position of the heavy chain. Exemplary peptides #10Q and #10V were tested in indirect ELISA assays to determine the EC50 values for binding to the epitope having the amino acid sequence of SEQ ID NO:1 and HIV gp41. The results of these studies are shown in Tables 6 and 7 below, as well as FIGS. 2 and 3. Target proteins U7267DC080-1 and U173DB060-1 correspond to recombinant gp41 and the 15-mer peptide […] (SEQ ID NO:1), respectively.

[10] = biological target: T3, recombinant HIV gp41; assay: GenScript binding assay, EC50 vs rgp41 (summary table; per first reading the same value as in Tables 6-8)
[11] = biological target: T3, recombinant HIV gp41; assay: indirect ELISA; gp41 coated 2 µg/ml in PBS
Method: as §3

[12] = biological target: T2, gp41 on the membrane of HIV-infected …; assay: FACS on HIV-infected CD4+ cells, absence of sCD4
Method: as §2

Binder	ELISA OD [1]	ELISA OD (Neg. Cont.) [2]	ELISA OD [3]	ELISA OD [4]	ELISA OD [5]	ELISA OD [6]	Fluorescent (FACS) counts [7]	IC value vs SF 162 (µg/ml) in PBMC based in vitro assays [8]	EC50 [9]	EC50 [10]	EC50 [11]	Fluorescent (FACS) counts [12]
HIV-binding peptide #1 (antibody, human IgG1, kappa, V domains shown, Recombinant, fully human immunoglobulin; also called U1205DB020-1) VH: QVQLQESGGGVVQPGRSLRLSCAASGFTFSSYAIHWVRQAPGKGLEWVAVISYDGSNRYYADSVKGRFTISRDNSKNTLYLQMNSLRPEDTAVYYCARDRFSAVASTPTYHNYFYMDVWGKGTTVTVSS VL: DIQMTQSPSSLSASVGDRVTITCQASQDVNNYLAWYQQKPGQAPRLLIYDASNLETGVPSRFSGSGSGTDFTLTISSLQPEDLATYYCQQYDNTPYTFGQGTKLEIKR	0.079 OD	0.096 OD	0.098 OD	0.076 OD	0.08 OD	0.096 OD	–	–	–	–	–	–
HIV-binding peptide #10Q (antibody, V domains shown, also called antibody#10-5Q; U1205DB020-10) VH: QVQLQESGGGVVQPGRSLRLSCAASGFTFSSYAIHWVRQAPGKGLEWVAVISYDGSNRYYADSVKGRFTISRDNSKNTLYLQMNSLRPEDTAVYYCARDRFSAVASTPTYHNYFYMDVWGKGTTVTVSS	1.71 OD	0.084 OD	0.209 OD	0.377 OD	0.14 OD	0.863 OD	110000 counts	0.05 µg/mL	5.54 µg/mL	1.78 µg/mL	1.78 µg/mL	120000 counts
HIV-binding peptide #9Q (antibody, human IgG1, V domains shown) VH: QVQLQESGGGVVQPGRSLRLSCAASGFTFSSYAIHWVRQAPGKGLEWVAVISYDGSNRYYADSVKGRFTISRDNSKNTLYLQMNSLRPEDTAVYYCARDRFSAVASTPTYHNYFYMDVWGKGTTVTVSS	0.745 OD	0.105 OD	0.122 OD	0.171 OD	0.111 OD	0.322 OD	–	–	–	–	–	–
HIV-binding peptide #6 (antibody, human IgG1, kappa, V domains shown, Recombinant, fully human immunoglobulin; also called U1205DB020-6) VH: QVQLQESGGGVVQPGRSLRLSCAASGFTFSSYAIHWVRQAPGKGLEWVAVISYDGSNRYYADSVKGRFTISRDNSKNTLYLQMNSLRPEDTAVYYCARDRFSAVASTPTYHNYFYMDVWGKGTTVTVSS VL: DIQMTQSPSSLSASVGDRVTITCQASQDISNYLAWYQQKPGQAPRLLIYDASNLETGVPSRFSGSGSGTDFTLTISSLQPEDLATYYCQQYDNTPYTFGQGTKLEIKR	0.079 OD	0.087 OD	0.072 OD	0.08 OD	0.077 OD	0.078 OD	–	–	–	–	–	–
HIV-binding peptide #8 (antibody, human IgG1, kappa, V domains shown, Recombinant, fully human immunoglobulin; also called U1205DB020-8) VH: QVQLQESGGGVVQPGRSLRLSCAASGFTFSSYAIHWVRQAPGKGLEWVAVISYDGSNRYYADSVKGRFTISRDNSKNTLYLQMNSLRPEDTAVYYCARDRFSAVASTPTYHNYFYMDVWGKGTTVTVSS VL: DIQMTQSPSSLSASVGDRVTITCQASQDISNYLAWYQQKPGQAPRLLIYDASNLETGVPSRFSGSGSGTDFTLTISSLQPEDLATYYCQQYDNLPYTFGQGTKLEIKR	0.076 OD	0.088 OD	0.089 OD	0.1 OD	0.094 OD	0.073 OD	–	–	–	–	–	–
HIV-binding peptide #5 (antibody, human IgG1, kappa, V domains shown, Recombinant, fully human immunoglobulin; also called U1205DB020-5) VH: QVQLQESGGGVVQPGRSLRLSCAASGFTFSSYAIHWVRQAPGKGLEWVAVISYDGSNRYYADSVKGRFTISRDNSKNTLYLQMNSLRPEDTAVYYCARDRFSAVASTPTYHNYFYMDVWGKGTTVTVSS VL: DIQMTQSPSSLSASVGDRVTITCQASQDVSNYLAWYQQKPGQAPRLLIYDASNLETGVPSRFSGSGSGTDFTLTISSLQPEDLATYYCQQYDNTPYTFGQGTKLEIKR	0.081 OD	0.078 OD	0.081 OD	0.071 OD	0.082 OD	0.086 OD	–	–	–	–	–	–
HIV-binding peptide #3 (antibody, human IgG1, kappa, V domains shown, Recombinant, fully human immunoglobulin; also called U1205DB020-3) VH: QVQLQESGGGVVQPGRSLRLSCAASGFTFSSYAIHWVRQAPGKGLEWVAVISYDGSNRYYADSVKGRFTISRDNSKNTLYLQMNSLRPEDTAVYYCARDRFSAVASTPTYHNYFYMDVWGKGTTVTVSS VL: DIQMTQSPSSLSASVGDRVTITCQASQDVNNYLAWYQQKPGQAPRLLIYDASNLETGVPSRFSGSGSGTDFTLTISSLQPEDLATYYCQQYDNLPYTFGQGTKLEIKR	0.072 OD	0.083 OD	0.074 OD	0.072 OD	0.087 OD	0.077 OD	–	–	–	–	–	–
HIV-binding peptide #10V (antibody, V domains shown, differs from #10Q by Q to V at position 5 of the heavy chain; also called antibody#10-5V; U6323DD200-2) VH: QVQLVESGGGVVQPGRSLRLSCAASGFTFSSYAIHWVRQAPGKGLEWVAVISYDGSNRYYADSVKGRFTISRDNSKNTLYLQMNSLRPEDTAVYYCARDRFSAVASTPTYHNYFYMDVWGKGTTVTVSS	–	–	–	–	–	–	29900 counts	0.5 µg/mL	4.59 µg/mL	1.39 µg/mL	1.39 µg/mL	56600 counts
HIV-binding peptide #4 (antibody, human IgG1, kappa, V domains shown, Recombinant, fully human immunoglobulin; also called U1205DB020-4) VH: QVQLQESGGGVVQPGRSLRLSCAASGFTFSSYAIHWVRQAPGKGLEWVAVISYDGSNRYYADSVKGRFTISRDNSKNTLYLQMNSLRPEDTAVYYCARDRFSAVASTPTYHNYFYMDVWGKGTTVTVSS VL: DIQMTQSPSSLSASVGDRVTITCQASQDINNYLAWYQQKPGQAPRLLIYDASNLETGVPSRFSGSGSGTDFTLTISSLQPEDLATYYCQQYDNLPYTFGQGTKLEIKR	0.07 OD	0.091 OD	0.077 OD	0.073 OD	0.073 OD	0.079 OD	–	–	–	–	–	–
HIV-binding peptide #11Q (antibody, V domains shown, Heavy chain only with variant CH1/CH2 (hinge cysteines replaced by serines)) VH: QVQLQESGGGVVQPGRSLRLSCAASGFTFSSYAIHWVRQAPGKGLEWVAVISYDGSNRYYADSVKGRFTISRDNSKNTLYLQMNSLRPEDTAVYYCARDRFSAVASTPTYHNYFYMDVWGKGTTVTVSS	0.441 OD	0.104 OD	0.119 OD	0.127 OD	0.092 OD	0.241 OD	–	–	–	–	–	–
HIV-binding peptide #7 (antibody, human IgG1, kappa, V domains shown, also called U1205DB020-7) VH: QVQLQESGGGVVQPGRSLRLSCAASGFTFSSYAIHWVRQAPGKGLEWVAVISYDGSNRYYADSVKGRFTISRDNSKNTLYLQMNSLRPEDTAVYYCARDRFSAVASTPTYHNYFYMDVWGKGTTVTVSS VL: DIQMTQSPSSLSASVGDRVTITCQASQDVSNYLAWYQQKPGQAPRLLIYDASNLETGVPSRFSGSGSGTDFTLTISSLQPEDLATYYCQQYDNLPYTFGQGTKLEIKR	0.09 OD	0.088 OD	0.098 OD	0.084 OD	0.096 OD	0.092 OD	25000 counts	0.5 µg/mL	–	107 µg/mL	–	25900 counts
HIV-binding peptide #2 (antibody, human IgG1, kappa, V domains shown, Recombinant, fully human immunoglobulin; also called U1205DB020-2) VH: QVQLQESGGGVVQPGRSLRLSCAASGFTFSSYAIHWVRQAPGKGLEWVAVISYDGSNRYYADSVKGRFTISRDNSKNTLYLQMNSLRPEDTAVYYCARDRFSAVASTPTYHNYFYMDVWGKGTTVTVSS VL: DIQMTQSPSSLSASVGDRVTITCQASQDINNYLAWYQQKPGQAPRLLIYDASNLETGVPSRFSGSGSGTDFTLTISSLQPEDLATYYCQQYDNTPYTFGQGTKLEIKR	0.068 OD	0.075 OD	0.074 OD	0.188 OD	0.065 OD	0.076 OD	–	–	–	–	–	–
